The text below walks through data of US20080267976A1.

Assay [1] deals with V158 FcγRIIIa (UniProt P08637). The experiment in a line: competition AlphaScreen.
In assay [2] the target is V158 FcγRIIIa (UniProt P08637). The experiment in a line: competition AlphaScreen; second row.

By IC50 is commonly meant the concentration needed to halve the response being measured. A lower IC50 goes with greater potency.

Chain of V158 FcγRIIIa (P08637 17-208 F176V): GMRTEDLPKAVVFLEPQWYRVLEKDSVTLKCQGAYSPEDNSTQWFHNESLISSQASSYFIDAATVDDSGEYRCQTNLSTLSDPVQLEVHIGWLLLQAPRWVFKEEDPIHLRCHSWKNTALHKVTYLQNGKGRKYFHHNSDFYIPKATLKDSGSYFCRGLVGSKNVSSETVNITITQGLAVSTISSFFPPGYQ

Turning to S239D/I332E H3.69_L3.71 AC10 IgG1, the IC50 worked out at 5.1 nM with V158 FcγRIIIa [1] and 0.531 nM in the assay with V158 FcγRIIIa [2].

“S239D/I332E/A330Y H3.69_V2_L3.71 AC10 IgG(1/2) ELLGG” registered an IC50 with V158 FcγRIIIa [1] of 52 nM.

Turning to “S239D/I332E/A330Y/K326E H3.69_V2_L3.71 AC10 IgG(1/2) ELLGG”, the 50% inhibitory concentration (IC50) with V158 FcγRIIIa [1] stood at 4 nM.

Take “S239D/I332E/H268E H3.69_V2_L3.71 AC10 IgG(1/2) ELLGG”: in the assay with V158 FcγRIIIa [1], the 50% inhibitory concentration (IC50) is 0.882 nM.

Consider “S239D/I332E/K246H/S324I H3.69_V2_L3.71 AC10 IgG(1/2) ELLGG”, for which the IC50 with V158 FcγRIIIa [1] was 10.7 nM.

“S239D/I332E/K246H/T260H H3.69_V2_L3.71 AC10 IgG(1/2) ELLGG” registered an IC50 with V158 FcγRIIIa [1] of 5.79 nM.

“S239D/I332E/K326T H3.69_V2_L3.71 AC10 IgG(1/2) ELLGG” came in with an IC50 with V158 FcγRIIIa [1] of 5.26 nM.

Substance “S239D/I332E/S298A H3.69_V2_L3.71 AC10 IgG(1/2) ELLGG” registered a concentration for half-maximal inhibition (IC50) with V158 FcγRIIIa [1] of 1.28 nM.

“S239D/I332E/S324G H3.69_V2_L3.71 AC10 IgG(1/2) ELLGG” had an IC50 in the assay with V158 FcγRIIIa [1] of 8.93 nM.
